{
  "source": "paper PMC9268357",
  "about": "(Science (New York, N.y.), 2021)",
  "binders": {"B1": {"name": "S2P6 monoclonal antibody (antibody, V domains shown)", "VH": "EVQLVQSGAEVKKPGASVKVSCKASGYTFTSQYMHWVRQAPGQGLEWIGIINPSGVHTSYAQKFQGRVTLTRDTSTSTLYMELSSLRSEDTAVYYCARGSPKGAFDYWGQGTLVTVSS", "VL": "not shown", "notes": "also called S2P6 mAb; S2P6 IgG; copies: 2 + 2"}, "B2": {"name": "S2P6 Fab fragment (Fab, V domains shown)", "VH": "B1 VH", "VL": "not shown"}},
  "key": {"[1]": {"biological_target": "SARS-CoV-2 or SARS-CoV stem helix peptide (SARS-CoV-2; region stated to be …, biotin)", "assay": "BLI", "details": "both partners purified"}, "[2]": {"biological_target": "T1, prefusion-stabilized HKU1 S ectodomain trimer (Human coronavirus HKU1, isolate not …, UniProt Q5MQD0, stabilised)", "assay": "ELISA", "details": "both partners purified"}, "[3]": {"biological_target": "prefusion-stabilized OC43 S ectodomain trimer (Human coronavirus OC43, isolate not …, UniProt P36334, stabilised)", "assay": "cell-based or functional assay"}, "[4]": {"biological_target": "T1, prefusion-stabilized HKU1 S ectodomain …", "assay": "SPR; S2P6 Fab fragment and S glycoproteins (fig. S1, G and H)", "details": "both partners purified"}},
  "data": [
    {"binder": "B1", "values": [
      {"measurement": "binding result", "setting": "[1]", "result": "binds"},
      {"measurement": "binding result", "setting": "[2]", "result": "binds"},
      {"measurement": "neutralization of VSV pseudotyped with OC43 S, IC50", "setting": "[3]", "result": 1.3, "unit": "µg/mL"}
    ]},
    {"binder": "B2", "values": [
      {"measurement": "Kd", "setting": "[4]", "result": "~120", "unit": "nM"}
    ]}
  ]
}
